Patent publication US20190016806A1 (BPS BIOSCIENCE, published 2019)

Target: PD-1 expressed on Jurkat T cells (NFAT luciferase reporter) (human, UniProt Q15116 25-288)
Assay: cell-based or functional assay

Sequence of PD-1 expressed on Jurkat T cells (NFAT luciferase reporter) (Q15116 25-288): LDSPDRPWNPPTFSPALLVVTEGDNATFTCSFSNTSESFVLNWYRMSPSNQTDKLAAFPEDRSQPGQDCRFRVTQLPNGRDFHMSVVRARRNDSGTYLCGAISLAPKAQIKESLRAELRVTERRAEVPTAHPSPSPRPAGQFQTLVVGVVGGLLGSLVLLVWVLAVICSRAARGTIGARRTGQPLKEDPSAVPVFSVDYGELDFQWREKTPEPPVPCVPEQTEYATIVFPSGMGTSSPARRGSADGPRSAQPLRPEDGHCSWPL

B1: BPS hAb-10D3 humanized anti-PD-1 neutralizing antibody (antibody, V domains shown)
VH: QVQLQESGPGLVKPSQTLSLTCSVSGYSITSGYFWNWIRQFPGNKLEWIGYISYDGSKNYNPSLKNRVTIIRDTSKNQFSLKLNSVTAEDTATYYCVRGGLPVMDYWGQGTSVTVSS
VL: DIVMTQSPSSLALSVGEKATIQCKSSQSLLDDNNQKNYLAWYQQKPGQPPKLLIFFASTRESGVPDRFIGSGSGTDFTLTISSLQAEDLADYYCQQHYTTPYTFGGGTNVEIK
  EC50 of inhibition of PD-1 signaling (NFAT luciferase reporter in Jurkat T cells with PD-L1-expressing HEK293 cells): 0.38 µg/mL
